{"source": "paper PMC8395645", "target": "FGFR2b Ig-like domains 2-3 (UniProt P21802-3 140-369)", "test": "ITC", "data": [{"binder": "TGTTGGGAGGGGATGGGACGTATAGGTAAGGGCGGGGGTGGACACG (structured_DNA)", "note": "[Apt_46]", "values": [{"measurement": "Kd", "result": "46.3 ± 16.2", "unit": "nM"}]}]}
